The results in this text go back to PMC8766471, “Mutations affecting the N-terminal domains of SHANK3 point to different pathomechanisms in neurodevelopmental disorders” (Scientific Reports, 2022).

To fix the notation:
B1: Shank3 Ank repeats (residues 99-348), WT, recombinant (domain or fragment, rat, UniProt Q9JLU4 99-348, looked up)
chain: QNLIDDKQFAKLHTKANLKKFMDYVQLHSTDKVARLLDKGLDPNFHDPDSGECPLSLAAQLDNATDLLKVLRNGGAHLDFRTRDGLTAVHCATRQRNAGALTTLLDLGASPDYKDSRGLTPLYHSALGGGDALCCELLLHDHAQLGTTDENGWQEIHQACRFGHVQHLEHLLFYGANMGAQNASGNTALHICALYNQESCARVLLFRGANKDVRNYNSQTAFQVAIIAGNFELAEVIKTHKDSDVVPFRE
notes: Shank3, rat, Ank repeats, residues 99-348; expressed from pET-SUMO; also called WT Ank; WT Ank domain; source: E. coli BL21*(DE3), purified (HisTrap HP, SUMO protease, reverse HisTrap pass)
B2: isolated SPN domain of Shank3, recombinant (domain or fragment, rat, UniProt Q9JLU4 1-92, looked up)
chain: MDGPGASAVVVRVGIPDLQQTKCLRLDPTAPVWAAKQRVLCALNHSLQDALNYGLFQPPSRGRAGKFLDEERLLQDYPPNLDTPLPYLEFRY
notes: Shank3 SPN domain, isolated; the methods of expression list only residues 1-348 and 99-348; also called WT SPN

Test [1] has as its target B2. As to the kind of experiment: ITC; 25 °C; 20 mM Tris pH 7.5, 1 M NaCl, 0.5 mM TCEP; 25 µM SPN in the cell, 400 µM WT Ank or P141A Ank in the syringe; single-site-binding model. The settings on record: both partners purified. (Isothermal titration calorimetry measures the heat released or taken up as one component is titrated into another.)
Test [2] has as its target B1. The description is as above. The settings on record: both partners purified.

Consider B1, for which the dH in test [1] was -3.7 kcal/mol.
As for B2, the Kd (commonly the constant that tells how readily two partners part at equilibrium) in test [2] stood at 19 µM.
